Results on 1 molecule are retold here after patent US7220822 (OHIO STATE UNIVERSITY, dated 2007).

For the test, the target named is T1, CD80-Ig (extracellular domain of CD80 fused with the constant region of mouse IgG1 heavy chain) (mouse).
T1 construct: extracellular domain; also called B7-1
As to the kind of experiment: SPR (BIACORE), direct binding to immobilized CD80-Ig, linear regression plot. How it is done: Binding experiments were performed by surface plasmon resonance (SPR) on an instrument sold under the trademark BIACORE™ from Pharmacia Biosensor (Uppasala, Sweden). All experiments were performed at 37° C. using HBS-EP buffer (25 mM Hepes, pH7.4, […], 3.4 mM EDTA and, 005% surfactant P20) supplied by Pharmacia Biosensor.
CD80-Ig (extracellular domain of CD80 fused with the constant region of mouse IgG1 heavy chain) at 35 µg/ml in 10 mM sodium acetate buffer, pH 4.2, was coupled to a research grade CM 5 sensor chip using a standard amine coupling procedure with the following modifications (38). To reduce the immobilization level of the ligand, the surface was activated for 3 (instead of 7) minutes with N-hydroxysuccinamide and […]. […] Following coupling, noncovalently bound ligand was removed by washing twice with 5 mM NaOH.
Data for both k_a and k_d are quite consistent over the entire range of concentrations used. The difference between experimental and calculated data for both EL CD28 and RI CD28 peptide mimetics estimated by Chi^2 value is low being close to the noise level of the instrument. A linear regression plot of the rate of change in the response against response units was plotted using these values of k_a and k_d for each CD28 peptide analyte.
(In general: In SPR one partner is held on a chip, and binding of the other changes the refractive index at the surface.)

For orientation: Kd means the concentration at which binding is half-saturated. The low end stands for a tighter complex, the high end for a looser complex. In the case of H-KIEFMYPPPYLDNERSNGTI-OH (also called Free L peptide) [L-CD28 (free L CD28 peptide mimetic)], the equilibrium dissociation constant (Kd) is 2.44 µM. In other words, the single-digit micromolar range.
